Experimental data: PMC3766443 (Nature structural & molecular biology, 2013)

Molecular target: Arp2 subunit of Bos taurus Arp2/3 complex (Bos taurus, UniProt A7MB62 1-394)
Assay: crystal structure

binding result: binds
B1: Mus musculus GMFγ (glial maturation factor gamma), GST tag removed (natural protein)
chain: MSDSLVVCEVDPELKETLRKFRFRKETNNAAIIMKVDKDRQMVVLEDELQNISPEELKLELPERQPRFVVYSYKYVHDDGRVSYPLCFIFSSPVGCKPEQQMMYAGSKNRLVQTAELTKVFEIRTTDDLTETWLKEKLAFFR
